# From paper PMC8419023 (Structure (London, England : 1993), 2021)
# Where two headings read alike, the source gives them in different places. No end group written: not given here.
# B1: GST-Skp2^1−94 (domain or fragment)
# chain: MHRKHLQEIPDLSSNVATSFTWGWDSSKTSELLSGMGVSALEKEEPDSENIPQELLSNLGHPESPPRKRLKSKGSDKDFVIVRRPKLNRENFPG
# B2: GST-Skp2^1−74 (domain or fragment)
# chain: MHRKHLQEIPDLSSNVATSFTWGWDSSKTSELLSGMGVSALEKEEPDSENIPQELLSNLGHPESPPRKRLKSKG
# B3: Skp2^17−85 (domain or fragment)
# chain: ATSFTWGWDSSKTSELLSGMGVSALEKEEPDSENIPQELLSNLGHPESPPRKRLKSKGSDKDFVIVRRP
# B4: GST-Skp2^1−85 (domain or fragment)
# chain: MHRKHLQEIPDLSSNVATSFTWGWDSSKTSELLSGMGVSALEKEEPDSENIPQELLSNLGHPESPPRKRLKSKGSDKDFVIVRRP
# B5: GST-Skp2^1−64 (domain or fragment)
# chain: MHRKHLQEIPDLSSNVATSFTWGWDSSKTSELLSGMGVSALEKEEPDSENIPQELLSNLGHPES
# B6: GST-Skp2^1−53 (domain or fragment)
# chain: MHRKHLQEIPDLSSNVATSFTWGWDSSKTSELLSGMGVSALEKEEPDSENIPQ
# Tests used:
# CDK2-cyclin A^1−432 = CDK2-cyclin A^1−432 (human, UniProt P24941 1-298; P20248 1-432); assay: pull-down
# CDK2-cyclin A^173−432 [1] = biological target: T1, CDK2-cyclin A^173−432 (human, UniProt P24941 1-298; P20248 173-432); assay: ITC
# CDK2-cyclin A^173−432 [2] = biological target: T1, CDK2-cyclin A^173−432; assay: fluorescence polarisation
# CDK2-cyclin A^173−432 [3] = biological target: T1, CDK2-cyclin A^173−432; assay: fluorescence polarisation; remark: listed apart in the source
# CDK2-cyclin A^173−432 [4] = biological target: T1, CDK2-cyclin A^173−432; assay: fluorescence polarisation; remark: listed apart in the source
Binder,binding result (CDK2-cyclin A^1−432),other results
MHRKHLQEIPDLSSNVATSFTWGWDSSKTSELLSGMGVSALEK (domain or fragment) [GST-Skp2^1−43],binds,–
B1,binds,–
B2,binds,–
B3,–,Kd (CDK2-cyclin A^173−432 [1]): 0.496 µM; IC50 (CDK2-cyclin A^173−432 [2]): 13.4 µM; IC50 (CDK2-cyclin A^173−432 [3]): 5.1 µM
SACRNLFGPV-NH2 (not fully specified (N-terminus)) [FITC-p27^27−36 peptide],–,Kd (CDK2-cyclin A^173−432 [4]): 2.1 µM
B4,binds,–
B5,binds,–
B6,binds,–
